Molecular target: T1, HepG2 cells (which express ASGR1) (Homo sapiens, UniProt P07306)
T1 construct: endogenous in cells; host or cells: HepG2
T1 sequence (P07306 1-291): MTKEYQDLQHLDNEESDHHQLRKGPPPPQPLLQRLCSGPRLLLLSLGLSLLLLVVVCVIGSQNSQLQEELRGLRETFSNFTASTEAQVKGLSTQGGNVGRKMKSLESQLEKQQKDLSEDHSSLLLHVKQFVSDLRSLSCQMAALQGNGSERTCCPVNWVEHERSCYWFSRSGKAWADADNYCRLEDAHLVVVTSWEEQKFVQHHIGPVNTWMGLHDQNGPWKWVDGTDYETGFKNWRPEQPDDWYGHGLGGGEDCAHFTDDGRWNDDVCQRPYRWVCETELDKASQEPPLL
Assay: Guava HepG2 cell binding screen of anti-ASGR1 mAbs
Details: humanized L4L clones; Good / Poor
Protocol: Additionally, hybridomas producing monoclonal antibodies (mAbs) specific for human ASGR1 were prepared from Balb/C mice immunized with ASGR1-AviHis at a service provider using their propriety protocol. Antibody heavy and light chain sequences were obtained, amplified, and cloned. Clone supernatants containing the expressed mAbs were screened for binding to a human ASGR1-IgG1Fc fusion protein, and those with a positive signal as measured by enzyme linked immunosorbent assay (ELISA) were screened for cell binding on HepG2 cells (which express ASGR1). […] The isolated mAbs were further analyzed for the additional characteristics including, for example, titer, low aggregate content following protein A purification, high titer, lack of cross-blocking of ligand GalNac, calcium sensitivity, and cross-reactivity with rat ASGR1 protein.

B1: hzL4L-2: humanized L4L clone: "reduction in percent purity ... seen with the chimeric and hzL4L-1, -2 and -6" (antibody, V domains shown)
VH: QVQLQESGPGLVKPSQTLSLTCTVSGGSITSDYAWNWIRQHPGKGLEWIGYISYSGSTRYNPSLKSRISITRDTSKNQFSLKLSSVTAADTAVYYCARRYRYDEGYGMDYWGQGTTVTVSS
VL: DIQMTQSPSSLSASVGDRVTITCRASENIYSNLAWYQQKPGKAPKLLIYAATNLADGVPSRFSGSGSGTDFTLTISSLQPEDFATYYCQHFWGTPPWTFGGGTKVEIK
Guava HepG2 Screen: Good

B2: hzL4L-9 (antibody, V domains shown)
VH: QVQLQESGPGLVKPSQTLSLTCTVSGYSISSDYAWNWIRQHPGKGLEWIGYISYSGSTRYNPSLKSRISISVDTSKNQFSLKLSSVTAADTAVYYCARRYRYDEGYGMDYWGQGTTVTVSS
VL: DIQMTQSPSSLSASVGDRVTITCRASENIYSNLAWYQQKPGKAPKLLIYAATNLADGVPSRFSGSGSGTDFTLTISSLQPEDFATYYCQHFWGTPPWTFGGGTKVEIK
Guava HepG2 Screen: Poor

B3: hzL4L-10: "Humanized sequences hzL4L-10 through hzL4L-14 were further modified by adding additional mutations in the light chain CDR2/FR3 junction, namely D56S ..., D56E ... or G57A" (antibody, V domains shown)
VH: QVQLQESGPGLVKPSQTLSLTCTVSGYSITSDYAWNWIRQHPGKGLEWIGYISYSGSTRYNPSLKSRISITRDTSKNQFSLKLSSVTAADTAVYYCARRYRYDEGYGMDYWGQGTTVTVSS
VL: DIQMTQSPSSLSASVGDRVTITCRASENIYSNLAWYQQKPGKAPKLLIYAATNLASGVPSRFSGSGSGTDFTLTISSLQPEDFATYYCQHFWGTPPWTFGGGTKVEIK
Guava HepG2 Screen: Good

B4: hzL4L-3 (antibody, V domains shown)
VH: QVQLQESGPGLVKPSQTLSLTCTVSGYSITSDYAWNWIRQHPGKGLEWIGYISYSGSTRYNPSLKSRISITRDTSKNQFSLKLSSVTAADTAVYYCARRYRYDEGYGMDYWGQGTTVTVSS
VL: DIQMTQSPSSLSASVGDRVTITCRASENIYSNLAWYQQKPGKAPKLLIYAATNLADGVPSRFSGSGSGTDFTLTISSLQPEDFATYYCQHFWGTPPWTFGGGTKVEIK
Guava HepG2 Screen: Good

B5: hzL4L-6: humanized L4L clone: "reduction in percent purity ... seen with the chimeric and hzL4L-1, -2 and -6" (antibody, V domains shown)
VH: QVQLQESGPGLVKPSQTLSLTCTVSGYSITSDYAWNWIRQHPGKGLEWIGYISYSGSTRYNPSLKSRVTITRDTSKNQFSLKLSSVTAADTAVYYCARRYRYDEGYGMDYWGQGTTVTVSS
VL: DIQMTQSPSSLSASVGDRVTITCRASENIYSNLAWYQQKPGKAPKLLIYAATNLADGVPSRFSGSGSGTDFTLTISSLQPEDFATYYCQHFWGTPPWTFGGGTKVEIK
Guava HepG2 Screen: Good

B6: hzL4L-11: "Humanized sequences hzL4L-10 through hzL4L-14 were further modified by adding additional mutations in the light chain CDR2/FR3 junction, namely D56S ..., D56E ... or G57A" (antibody, V domains shown)
VH: QVQLQESGPGLVKPSQTLSLTCTVSGYSITSDYAWNWIRQHPGKGLEWIGYISYSGSTRYNPSLKSRISITRDTSKNQFSLKLSSVTAADTAVYYCARRYRYDEGYGMDYWGQGTTVTVSS
VL: DIQMTQSPSSLSASVGDRVTITCRASENIYSNLAWYQQKPGKAPKLLIYAATNLAEGVPSRFSGSGSGTDFTLTISSLQPEDFATYYCQHFWGTPPWTFGGGTKVEIK
Guava HepG2 Screen: Good

B7: hzL4L-8 (antibody, V domains shown)
VH: QVQLQESGPGLVKPSQTLSLTCTVSGYSITSDYAWNWIRQHPGKGLEWIGYISYSGSTRYNPSLKSRISISVDTSKNQFSLKLSSVTAADTAVYYCARRYRYDEGYGMDYWGQGTTVTVSS
VL: DIQMTQSPSSLSASVGDRVTITCRASENIYSNLAWYQQKPGKAPKLLIYAATNLADGVPSRFSGSGSGTDFTLTISSLQPEDFATYYCQHFWGTPPWTFGGGTKVEIK
Guava HepG2 Screen: Poor

B8: hzL4L-4 (antibody, V domains shown)
VH: QVQLQESGPGLVKPSQTLSLTCTVSGYSITSDYAWNWIRQHPGKGLEWIGYISYSGSTRYNPSLKSRVTISVDTSKNQFSLKLSSVTAADTAVYYCARRYRYDEGYGMDYWGQGTTVTVSS
VL: DIQMTQSPSSLSASVGDRVTITCRASENIYSNLAWYQQKPGKAPKLLIYAATNLADGVPSRFSGSGSGTDFTLTISSLQPEDFATYYCQHFWGTPPWTFGGGTKVEIK
Guava HepG2 Screen: Poor

B9: hzL4L-5 (antibody, V domains shown)
VH: QVQLQESGPGLVKPSQTLSLTCTVSGYSISSDYAWNWIRQHPGKGLEWIGYISYSGSTRYNPSLKSRISITRDTSKNQFSLKLSSVTAADTAVYYCARRYRYDEGYGMDYWGQGTTVTVSS
VL: DIQMTQSPSSLSASVGDRVTITCRASENIYSNLAWYQQKPGKAPKLLIYAATNLADGVPSRFSGSGSGTDFTLTISSLQPEDFATYYCQHFWGTPPWTFGGGTKVEIK
Guava HepG2 Screen: Good
